Test results reported in patent US8536117B2, “Oxidant resistant apolipoprotein A-1 and mimetic peptides” (The Cleveland Clinic Foundation, priority 2007, dated 2013).
“Also recorded” adds a separate entry of the source.

Assays:
[1] = tested on: RAW 264.7 murine macrophage cells; assay: ABCA1-dependent cholesterol efflux assay; type: cell-based; conditions: unoxidised protein/peptide, 4 hr incubation with [3H]cholesterol labeled RAW264.7 cells pretreated with 0.3 mM 8Br-cAMP
Experimental: ApoA1 (filled circles, solid line) and reductively methylated ApoA1 (open circles, dashed line) were subjected to modification by MPO at varying H2O2:ApoA1 mole ratios. These proteins were then assayed for ABCA1 dependent cellular cholesterol acceptor activity during a 4 hr incubation at 5 μg/ml with cholesterol labeled RAW264.7 cells, which had been treated with 0.3 mM 8Br-cAMP to induce ABCA1. Data are means±S.D. of triplicate determinations, when no bars appear, the S.D. is within the symbol.
(§1) RAW 264.7 murine macrophage cells were labeled with [3H] cholesterol and treated with 0.3 mmol/L 8Br-cAMP to induce ABCA1 activity, as previously described. The cells were washed and chased for 4 hours in serum-free medium in the presence of 0.3 mmol/L 8Br-cAMP and the presence or absence of various ApoA1 preparations. The radioactivity in the chase media was determined after brief centrifugation to pellet debris. Radioactivity in the cells was determined by extraction in hexane:isopropanol (3:2) with the solvent evaporated in a scintillation vial prior to counting. The percent cholesterol efflux was calculated as 100×(medium dpm)/(medium dpm+cell dpm).

[2] = Alpha helix content by CD (K2d algorithm); type: physicochemical; conditions: for loss of alpha helix content after MPO modification: MPO/H2O2 dose dependent; for alpha helix content: K2d algorithm, unmodified protein
Excerpt: We examined the role of ApoA1 tryptophan residues next by altering each of the four tryptophan residues to either leucine (rh-ApoA1 4WL) or phenylalanine (rh-ApoA1 4WF). […] Thus, the loss of efflux and lipid binding activity of the 4WL variant cannot be attributed to loss of helical content.

[3] = tested on: human low density lipoprotein; assay: Lipid binding activity assay: inhibition of phospholipase C (PLC)-mediated aggregation of LDL; type: biochemical; conditions: for lipid binding activity after MPO modification: PLC mediated LDL aggregation assay, MPO at varying H2O2:ApoA1 mole ratios
Experimental: (§2) MPO at a final concentration of 57 nmol/L, prepared as previously described, was added to ApoA1 at 100 μg/mL (3.5 μmol/L) that had been extensively dialyzed against MPO reaction buffer. The reaction was initiated by adding hydrogen peroxide at varying mole ratios to ApoA1 in 4 aliquots at 15-minute intervals at 37° C., and continuing the incubation for 90 minutes, at which time 2 mmol/L L-methionine was added to quench the reaction. For chemical modification of ApoA1, sodium hypochlorite (NaOCI) was added to 100 μg/mL ApoA1 in MPO buffer at varying concentrations in 4 aliquots at 15 minutes intervals at 37° C. After a total incubation time of 60 minutes, 2 mmol/L L-metbionine was added to quench the reaction.
Lipid binding activity of ApoA1 was assessed via the inhibition of phospholipase C (PLC)-mediated aggregation of human low density lipoprotein, performed as previously described. We have previously shown that this assay give results similar to those observed by the DMPC dispersion clearance assay, but it is more sensitive and requires less ApoA1. The final concentration of apoA1 used in this assay as 12.5 μg/mL. which was sufficient to decrease the initial rate LDL aggregation by ≈75%.

[4] = tested on: RAW 264.7 murine macrophage cells; assay: MPO/H2O2/Cl- modification of ApoA1, then ABCA1-dependent cholesterol efflux assay; type: cell-based; conditions: for ABCA1-dependent cholesterol acceptor activity after MPO modification: MPO/H2O2/Cl- system at varying (increasing) H2O2:ApoA1 mole ratios; for MPO mediated loss of cholesterol acceptor activity, high dose: H2O2:apoAI = 15:1, 3MV with or without the N-terminal methionine; for loss of cholesterol acceptor activity: MPO modification at H2O2:ApoA1 ratio of 1.4
Experimental: as §2, §1

[5] = DMPC emulsion clearance assay (lipid binding); type: biochemical; conditions: 25 μg protein, 125 μg DMPC, absorbance at 325 nm, 24° C.
Experimental: FIGS. 7 (A-B) illustrate plots showing that rh-ApoA1 4WF binds lipid as well as rh-ApoA1 and its lipid binding activity is resistant to MPO mediated oxidation. A. Dimyristoyl phosphatidylcholine (DMPC) emulsions (125 μg) were prepared and incubated without addition (solid thick line) or with the addition of 25 μg rh-ApoA1 (solid thin line) or rh-ApoA1 4WF (dotted line). Lipid binding and solubilization was monitored by loss of turbidity by reading absorbance at 325 nm over time at 24° C. […] B. rh-ApoA1 (filled circles, solid line) and rh-ApoA1 4WF (open circles, dashed line) were subjected to modification by MPO at varying H2O2:ApoA1 mole ratios. These proteins were then assayed for lipid binding activity by prevention of phospholipase C dependent LDL aggregation. Data are normalized to the lipid binding activity of rh-ApoA1 treated in the absence of H2O2. Data are means±S.D. of triplicate determinations. *, p<0.05; and **, p<0.001 vs. rh-ApoA1 4WF at the same H2O2: ApoA1 mole ratio, respectively, by two tailed t-test.

[6] = tested on: RAW 264.7 murine macrophage cells; assay: HOCl (sodium hypochlorite) modification of ApoA1, then ABCA1-dependent cholesterol efflux assay; type: cell-based; conditions: increasing doses of HOCl (varying HOCl:ApoA1 mole ratios)
Experimental: as §2, §1

lipid binding activity (DMPC clearance) [5] | lipid binding activity (DMPC clearance) ([5]; listed as 4WF variant) | Molecule | ABCA1-dependent cholesterol acceptor activity [1] | loss of alpha helix content after MPO modification [2] | decrease of the initial rate of LDL aggregation ([3]; apoA1 final concentration 12.5 μg/mL) | ABCA1-dependent cholesterol acceptor activity after MPO modification [4] | alpha helix content [2] [%] | cholesterol acceptor (efflux) activity after HOCl treatment [6] | lipid binding activity after MPO modification [3] | MPO mediated loss of cholesterol acceptor activity, high dose [4] | loss of cholesterol acceptor activity [4] | ABCA1-dependent cholesterol acceptor activity ([1]; listed as 4WL variant) | ABCA1-dependent cholesterol acceptor activity ([1]; listed as 4WF variant)
– | – | ApoA1: human plasma-derived ApoA1 | robust and equivalent | similarly susceptible | ≈ 75% | declined in a similar fashion | – | – | – | – | – | – | –
equivalent activity | – | rh-ApoA1: recombinant human ApoA1, with an additional methionine initiation codon and a 6-his tag at the N-terminus | yielded ABCA1 dependent cholesterol acceptor activity | susceptible to loss of alpha helical content | – | inhibited by increasing MPO induced oxidation | 57 | impaired by increasing doses of HOCl | diminished lipid binding activity | equally susceptible | negligible loss | – | –
– | – | methylated ApoA1: ApoA1 subjected to reductive methylation, leading to 92% lysine modification | robust and equivalent | similarly susceptible | – | declined in a similar fashion | – | – | – | – | – | – | –
– | – | rh-ApoA1 3MV: rh-ApoA1 with the three internal methionines converted to valines (protein, UniProt P02647 25-267, looked up, variant M86V M112V M148V) Apolipoprotein A-I: DEPPQSPWDRVKDLATVYVDVLKDSGRDYVSQFEGSALGKQLNLKLLDNWDSVTSTFSKLREQLGPVTQEFWDNLEKETEGLRQEVSKDLEEVKAKVQPYLDDFQKKWQEEVELYRQKVEPLRAELQEGARQKLHELQEKLSPLGEEVRDRARAHVDALRTHLAPYSDELRQRLAARLEALKENGGARLAEYHAKATEHLSTLSEKAKPALEDLRQGLLPVLESFKVSFLSALEEYTKKLNTQ | – | – | – | more sensitive to loss of cholesterol acceptor activity at low molar ratios | – | – | – | equally susceptible | lost about half of its cholesterol acceptor activity | – | –
– | – | rh-ApoA1 4WL: rh-ApoA1 with each of the four tryptophan residues altered to leucine (protein, UniProt P02647 25-267, looked up, variant W8L W50L W72L W108L) Apolipoprotein A-I: DEPPQSPLDRVKDLATVYVDVLKDSGRDYVSQFEGSALGKQLNLKLLDNLDSVTSTFSKLREQLGPVTQEFLDNLEKETEGLRQEMSKDLEEVKAKVQPYLDDFQKKLQEEMELYRQKVEPLRAELQEGARQKLHELQEKLSPLGEEMRDRARAHVDALRTHLAPYSDELRQRLAARLEALKENGGARLAEYHAKATEHLSTLSEKAKPALEDLRQGLLPVLESFKVSFLSALEEYTKKLNTQ | – | – | – | – | 79 | – | – | – | – | lost the majority of this activity | –
– | equivalent activity | rh-ApoA1 4WF: rh-ApoA1 with each of the four tryptophan residues altered to phenylalanine (protein, UniProt P02647 25-267, looked up, variant W8F W50F W72F W108F) Apolipoprotein A-I: DEPPQSPFDRVKDLATVYVDVLKDSGRDYVSQFEGSALGKQLNLKLLDNFDSVTSTFSKLREQLGPVTQEFFDNLEKETEGLRQEMSKDLEEVKAKVQPYLDDFQKKFQEEMELYRQKVEPLRAELQEGARQKLHELQEKLSPLGEEMRDRARAHVDALRTHLAPYSDELRQRLAARLEALKENGGARLAEYHAKATEHLSTLSEKAKPALEDLRQGLLPVLESFKVSFLSALEEYTKKLNTQ | – | susceptible to loss of alpha helical content | – | maintained this activity even at an H2O2:ApoA1 ratio of 15 | 77 | resistant to this treatment | resistant to MPO mediated inhibition; also recorded: did not loose its lipid binding activity | – | – | – | largely retained this activity
